Test results taken from publication PMC6825169, “Extracellular vesicle integrins act as a nexus for platelet adhesion in cerebral microvessels” (Scientific Reports, 2019).
Bridges are numbered along the chain shown (N, C = ends).

Target: integrin αvβ3 (mouse (endogenous in mouse middle …, UniProt P43406 31-1044; O54890 26-787)
Assay: cell-based or functional assay

Sequence of integrin αvβ3 (mouse (P43406 31-1044, chain 1 of 2): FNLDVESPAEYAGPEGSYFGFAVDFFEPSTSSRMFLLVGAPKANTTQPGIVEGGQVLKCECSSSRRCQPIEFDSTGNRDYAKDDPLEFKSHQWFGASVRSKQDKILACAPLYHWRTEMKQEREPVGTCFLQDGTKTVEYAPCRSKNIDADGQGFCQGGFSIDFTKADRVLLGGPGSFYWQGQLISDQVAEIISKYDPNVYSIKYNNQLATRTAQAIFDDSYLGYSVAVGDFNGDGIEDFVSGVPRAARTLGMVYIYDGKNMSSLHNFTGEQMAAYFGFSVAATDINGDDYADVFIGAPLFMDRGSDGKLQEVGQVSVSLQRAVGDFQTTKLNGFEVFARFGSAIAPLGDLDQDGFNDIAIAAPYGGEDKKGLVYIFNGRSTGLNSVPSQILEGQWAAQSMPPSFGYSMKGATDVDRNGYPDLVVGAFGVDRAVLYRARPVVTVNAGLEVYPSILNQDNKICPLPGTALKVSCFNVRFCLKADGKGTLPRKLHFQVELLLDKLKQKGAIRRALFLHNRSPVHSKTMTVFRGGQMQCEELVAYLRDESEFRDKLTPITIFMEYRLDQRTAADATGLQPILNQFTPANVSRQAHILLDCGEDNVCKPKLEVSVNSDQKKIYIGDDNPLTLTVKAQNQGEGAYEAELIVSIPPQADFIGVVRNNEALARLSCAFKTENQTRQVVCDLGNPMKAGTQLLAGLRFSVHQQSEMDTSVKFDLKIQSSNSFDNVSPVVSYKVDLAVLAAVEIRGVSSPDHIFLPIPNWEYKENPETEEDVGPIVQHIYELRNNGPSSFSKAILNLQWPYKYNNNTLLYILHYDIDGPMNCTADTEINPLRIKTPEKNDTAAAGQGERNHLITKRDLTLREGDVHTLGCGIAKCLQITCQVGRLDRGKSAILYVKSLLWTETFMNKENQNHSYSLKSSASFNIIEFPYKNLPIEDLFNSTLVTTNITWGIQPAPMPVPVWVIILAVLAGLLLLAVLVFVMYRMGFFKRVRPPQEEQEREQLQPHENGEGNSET
Sequence of integrin αvβ3 (mouse (O54890 26-787, chain 2 of 2): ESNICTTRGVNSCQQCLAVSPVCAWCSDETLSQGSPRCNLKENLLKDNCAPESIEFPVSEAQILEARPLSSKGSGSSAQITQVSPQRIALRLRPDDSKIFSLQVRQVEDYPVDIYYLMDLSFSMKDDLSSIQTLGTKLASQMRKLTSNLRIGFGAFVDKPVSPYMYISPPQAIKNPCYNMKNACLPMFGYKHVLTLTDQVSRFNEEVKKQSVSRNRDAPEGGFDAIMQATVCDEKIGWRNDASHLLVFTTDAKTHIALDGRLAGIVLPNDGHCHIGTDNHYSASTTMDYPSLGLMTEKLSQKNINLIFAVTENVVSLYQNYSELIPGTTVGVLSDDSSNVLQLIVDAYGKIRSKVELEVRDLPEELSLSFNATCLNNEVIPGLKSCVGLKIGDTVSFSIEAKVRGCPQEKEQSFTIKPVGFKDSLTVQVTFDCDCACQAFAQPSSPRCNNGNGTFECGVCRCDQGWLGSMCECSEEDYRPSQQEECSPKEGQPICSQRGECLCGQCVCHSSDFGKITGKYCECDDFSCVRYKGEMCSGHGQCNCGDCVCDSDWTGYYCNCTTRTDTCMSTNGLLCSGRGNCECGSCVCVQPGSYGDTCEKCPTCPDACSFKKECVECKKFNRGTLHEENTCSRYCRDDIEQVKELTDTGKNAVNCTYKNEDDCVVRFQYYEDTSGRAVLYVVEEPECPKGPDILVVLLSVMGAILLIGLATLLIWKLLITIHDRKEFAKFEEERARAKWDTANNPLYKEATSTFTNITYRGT

How did the “adherence of CFSE-labelled washed platelets to the luminal surface of the MCA under flow after cRGD-MPs, compared to cRGD peptide alone” value turn out when H-GCRGDC-NH2 (disulfide 2-6 (inferred)) [H-GCRGDC-NH2 (cRGD)] was run?
The value was 3 fold.
